Assay: yeast display, Sf9 membrane polyspecificity reagent, FACS + sequencing; frameworks hold sequencing errors
Summary of the method: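 Nanobodies from a synthetic yeast display library (Saccharomyces cerevisiae BJ5465), induced 36–48 hours with galactose, were stained 1 hour at 4 °C with 10% biotinylated, detergent-solubilized Sf9 membrane reagent, enriched on streptavidin microbeads, then FACS-sorted. Anti-HA (expression) and streptavidin (reagent binding) fluorescence set low and high (top ~1%) gates. Polyreactivity labels come from the gate of origin. Genes were colony-PCR amplified, MiSeq 2 × 250 sequenced and filtered by CDR length.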

Row | Sequence | polyreactivity (PSR sort gate)
1 | QVQLVETGGGLVQAGGSLRLSCAASGRIYYVYDMGWYRQAPGKERELVAAISWSGGSTSYADSVKGRFTISRDNAKYTVYLQMNSLKPDDTAVYYCAATSAIGWGYDYWGQGTQVTVSS | low polyreactivity
2 | QVQLVESGGGLVQAGGSLRLSCAASGGIFGGYAMGWYRQAPGKAGALVAVITSGGSTYYADSVKGRFTISRDNAKNTVYLQMNSLKPEDTAVYYCAADGHSYSYSTYDYWGQGTQVTVSS | low polyreactivity
3 | QVQLVESGGGLVQAGGSLRLSCDASGRIFGRYAMGSYRPAPGNDRELVAAIPRNGGSTYADSVKGRFTISRDNAKNTVYLQMNSLKPEDTAVYYCAARNSYRYSKYDYWGQGTQVTVSS | high polyreactivity
4 | QVQLVESGGGLVQAGGSLRLSCAASGSIFSYNAMGWYREAPGKERELVAAISSRGRTYYADSVKGRFTISRDNAKNTVNLQMNSLKPEDTAVYYCAARGYWDLRTFYYWGQGTQVTVSS | high polyreactivity
5 | QVQLVESGGGLVQAGGSLRISCAASGSIFYLYTIGWYRQAPGKERELVAAITSGGSTNYADSVKGRFTISRDNAKNTVYLQMNSLKPEDTAVYYCAAEYFDWWVTYDYWGQGTQVTVSS | high polyreactivity
6 | QVQLVESGGGLVQAGGSLRLSCAASGSTFYGYAMGWYRQAPGKERELVAAINWSGGRTYYADSVKGRFTISRDNAKNTVYLQMNSLKPEDTAVYYCAARGRYQPQFDYWGQGTQVTVSS | high polyreactivity
7 | QVQLVESGGGLVQAGGSLRLSCAASGRIFKWYAMGWYRQAPGKERELVAAITWRGGSTNYADSVKGRFTISRDNAKNTVYLQMNSLKPEDTAVYYCAVGTVFLTYRGYEYWGQGTQVTVSS | high polyreactivity
8 | QVQLVESGGGLVQAGGSLRLSCAASGISFSYYAMGWSRQAPGKERELVAAISSSGSTNYADSVKGRFTISRDNAKNTVYLQMNSLKPEDTAVYYCNAGYGRRVYVYSFKLRYNYWGQGTQVTVSS | high polyreactivity
9 | QVQLVESGGGLVQAGGSLRLSCAASGITFVDYAMGWYRQAPGKEWELVAAITTGGSTNYADSVKGRFTISRDNAKNTVYLQMNRLKPEDTAVYYCNKRPVILYDYWGQGTQVTVSS | low polyreactivity
10 | QVQLVESGGGLVQAGGSLRLSCSASGRISVFNVMGWYRQAPGKERELVAAITSGGSTIYADSVKGRFTISRDNAKNTVYLQMNSLKPEDTAVYYCAALYQFHGKIWDGDYWGQGTQVTVSS | low polyreactivity
11 | QVQLVESGGGLVQAGGSLRLSCAASGSTFAGYAMGWYRQAPGKERELVAAIRSGGSTYYADSVKGRFTISRDNAKNTVYLQMNSLKPEDTAVYYCNAVYAFNGYDYWGQVTQVTVSS | low polyreactivity
12 | QVQLVESGGGLVQAGGSLRLSCAASGRIFTYNAMGWYRQAPGKEWELVAVISRRGGSTYYADSVKGRFTISRDNAKNSVYLQMNSLKPEDTAVYYCAADLPSYAYEFWGQGTQVTVSS | low polyreactivity
13 | EVQLEESGGGLVQAGGSLRLSCPASGLIFGLYAMGWYRQAPGKERELVAAISYRTDSTYADSVKGRFTISRDNAKNTFYLQKNSLIPEDTAVYYCAADLRVSVGYYYWGQGTQVTVSS | low polyreactivity
14 | QVQLVESGGGLVQAGGRLRLSFAASGLTFWWYAMGWYRQAPGKERELVAAIDSADITNYADSVKGRFTISRDNAKNTVYLQMNSLKPEDTAVYYCAAGRDYYVVNYVLFLFDYWGQGTQVTVSS | high polyreactivity
15 | QVQLVESGGGLVQAGGSLRLICAASGSIFGYYAMGWYRQAPGKERELVAGITNSGDTNYADSVKGRFTISRDNAKNTVYLQMNSLKPEDTAVYYCAADGSYQYYYWGQGTQVTVSS | low polyreactivity
16 | QVQLVESGGGLVQAGGSLRLSCAASGSISSKNAMGWYRQAPGKEREFVAVISGTGGSTYYADSVKGRLTISRDNAKNTVYLQMNSLKPEDTAVYYCAAAASSIVSYGYTWTYGYWGQGTQVTVSS | low polyreactivity

Row | Sequence | polyreactivity (PSR sort gate)
17 | QVQLVESGGGLVQAGGSLRLSCAASGRTFERYALGWYRQAPGKERELVAAIDFSGGSTSYADSVKGRFTISRDNAKNTVYLQMNSLKPEDTAVYYCAARETAHGGKEDDYWGQGTQVTVSS | low polyreactivity
18 | QVQLVESGGGLVQAGGSLRLSCAASGSIFRLYAMGWYRQAPGKERELVAAITWRSGSTYYADSVKGRFTISRDNAKNTVYLQMNSLKPEDTAVYYCAADSLYRLYNYWGQGTQVTVSS | high polyreactivity
19 | QVQLVESGGGLVQAGGSLRLSCAASGSIFVVYAMGWYRQAPGKERELVASIRTGGSTNYADSVKGRFTISRDNAKNTVYLQMNSLKPEDTAVYYCAAASWNSKRHYYVARYYYWGQGTQVTVSS | high polyreactivity
20 | QVQLVESGGGLVQAGGSLRLSCAASGRIFGFNAMGWYRQATGKERELVAAISWRGGSTYYADSVKGRFTISRDNAKNTVYLQMNSLKPEDTAVYYCAAGRYLRSGFGEGYYWGQGTQVTVSS | high polyreactivity
21 | QDQLVESGGGLVQAGGSLRLSCAASGSTFSDNTMGWYRQAPGKERELVAANTTIGGSTYYADSVKGRFTISRDNAKNTVSVQMISLKPEDTAVYYCAAVDFTSQYYDLYIYWGQGTQVTVSS | low polyreactivity
22 | QVQLVESGGGLVQAGGSLRLSCAASGRIFVPYAMGWYRQAPGKERELVAAISWRGGSTNYADSVKGRFTISRDNAKNTVYLQMNSLKPEDTAVYYCAAVPVRYRYSYGYYYWGQGTQVTVSS | high polyreactivity
23 | QVQLVESGGGLVQAGGSLRLSCAASGFTSRRYVMGWYRQAPGKERELVAAISSRGTSTYYADSVKGRFTISRDNAKNTVYLKMNSLKPEDTAVYYCAAVIRGRTRWLKYDYWGQGTQGTVSS | high polyreactivity
24 | QVQLVESGGGLVQAGGSLRLSCTASGSIFTRNTMGSYRQAPGKERELVAAISRRGGSTDYADSVKGRFTISRDNAKNTVYLQMNSLKPEDTAVYYCAADLGYEYDYWGQGTQVTVSS | high polyreactivity
25 | QVQLVESGGGLVQAGCSLRLSCAPSGSTFKVNDMGWYRQAPGKERELVAAIDKSGGTTYYADSVKGRFTLSRDNAKNTVYYQMNSLKPEDTAVYYCAADVIYEMDYWGQGTQVTVSS | low polyreactivity
26 | QVQLVESGGGLVQAGGRLRLSCAPSGLIFQHNSMGWYRKATGKERELVASITWDGGSTYYADSVKGRFTISRDNAKNTVYLQMNSLKPEDTAVYYCAARFDSFWVEYDYWGQGTQVTVSS | low polyreactivity
27 | QVQLVESGGGLVQAGGSLRLSCAASGSIFHRYAMGWYTQAPGKERELVAAISWSGGSTYYADSVKGRFTISRDNAKNTVYLQMNSLKPEDTAVYYCNRVAWNYGFGSSAYGYWGQGTQVTVSS | high polyreactivity
28 | QVQLVESGGGLVQAGGSLRLSCAASGRIFGYYAMGWYRQAPGKERELVAAITWSGGSTYYADSVKGRFTISRDNAKNTVYLQMNSLKPEDNAVYYCAAEKRYRKAFDYWGQGTQVTVSS | high polyreactivity
29 | QVQLVESGGGLVQAGGSLRLSCAASGLIFYGNAMGWSRQAPGKERELVAAISRRGGRTYYADSVKGRFTISRDNAKNTVYLQMNSLKPEDTAVYYCDADVIYSGDYWGQGTQVTVSS | high polyreactivity
30 | QVQLVESGGGLVQAGGSLRLSCAASGSIIYIYAMGWYRQAPGKERELVAAISSGDRTNYADSVKGRFTISRDNAKNTVYLQMNSLKPEDTAVYYCAARGRGSAAKYNYWGQGTQVTVSS | high polyreactivity
31 | QVQLVESGGGLVQAGGSLRLSCAASGFIFGYNVMGWYIQAPGKERELVASISTGGRTYYADSVKGRFTISRDNAKNTVYLQMYSLKPEDTAVYYCAARYRSYSYLYYSWGQGTQVTVSS | high polyreactivity
32 | QVQLVESGGGLVQAGGSLRLSCAASGRILSSNAMGWYRQAPRKERELVAAISWSGGSTYYADSVKGRFTISRDNAKNTVYFQMNSLKPEDTAVYYCAAPFTTTFDYWGKGTQVTVSS | low polyreactivity
